Format in all cases: biochemical
Holding throughout (settings): activity of the variant/activity of WT GLA (SEQ ID NO: 5), yeast supernatant

The nature of data set [1]: HTP-analysis of yeast culture supernatants, no challenge (MUGal hydrolysis). The gist of the method: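 GLA variants expressed in yeast INVSc1, secreted into SD-Ura broth over 66-84 h at 30° C; clarified supernatants tested without challenge. Supernatant mixed with McIlvaine buffer pH 4.8 and 2 mM MUGal (citrate/KCl, pH 4.6), 37° C for 30-180 min, carbonate-quenched, fluorescence Ex 355/Em 448 nm.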

A short description of data set [2]: HTP-analysis of supernatants pretreated with acid (MUGal hydrolysis). The procedure, abridged:
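Supernatants from INVSc1 yeast secreting GLA variants were challenged at 37° C. for 1-3 h in McIlvaine buffer at pH 3.3-4.3. Residual activity was then measured on 4 mM MUGal substrate stock at pH 4.8 with citrate buffer pH 4.3, over 30-180 min at 37° C. Reactions were quenched with sodium carbonate and read by fluorescence (Ex 355/Em 448 nm).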

A short description of data set [3]: HTP-analysis of supernatants pretreated with base (MUGal hydrolysis). The gist of the method: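 Supernatants from INVSc1 yeast expressing GLA variants (SD-Ura, 66-84 h, 30° C) were mixed with McIlvaine buffer pH 7.0-8.2 or 200 mM sodium bicarbonate pH 9.1-9.7 and held 1-18 h at 37° C. Residual activity was then measured on MUGal at pH 4.8/4.3, 37° C, 30-180 min, by fluorescence (Ex 355/Em 448 nm).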

Where a chain is given by its changes, count along the chain named.

B1: 26 (protein)
chain: LDNGLARTPTMGWLHWERFMCNLDCQEEPDSCISEKLFMEMAELMVSEGWKDAGYEYLCIDDCWMAPQRDSEGRLQADPQRFPHGIRQLANYVHSKGLKLGIYADVGNKTCAGFPGSFGYYDIDAQTFADWGVDLLKFDGCYCDSLENLADGYKHMSLALNRTGRSIVYSCEWPLYMWSFQKPNYTEIRQYCNHWRNFADIDDSWKSIKSILDWTSFNQERIVDVAGPGGWNDPDMLVIGNFGLSWNQQVTQMALWAIMAAPLFMSNDLRHISPQAKALLQDKDVIAINQDPLGKQGYQLRQGDNFEVWERPLSGLAWAVAMINRQEIGGPRSYTIAVASLGKGVACNPACFITQLLPVKRKLGFYEWTSRLKSHINPTGTVLLQLENTMQMSLKDLLL
modifications: Synthetic Polypeptide sequence of Variant No. 26 of mature Human GLA
Take B1: in data set [1], the “Relative Activity of GLA Variants After No Challenge (NC)” value was “+ (+ = 0.5 to 1.5 relative activity over WT GLA (SEQ ID NO: 5))”. Moreover, in data set [2], the “Relative Activity of GLA Variants After Challenge at pH 4.3” value (“Relative Activity … at pH 4.3” below) is “+ (+ = 0.5 to 1.5 relative activity over WT GLA (SEQ ID NO: 5))”. Moreover, in data set [3], the “Relative Activity of GLA Variants After Challenge at pH 7.0” value (shortened to “Relative Activity … at pH 7.0”) is listed as “+ (+ = 0.5 to 1.5 relative activity over WT GLA (SEQ ID NO: 5))”.

B2: 32 (protein)
chain: B1 chain with S179P, I376V
modifications: Synthetic Polypeptide sequence of Variant No. 32 of mature Human GLA
Take B2: the “Relative Activity of GLA Variants After No Challenge (NC)” value in data set [1] is on record as “+ (+ = 0.5 to 1.5 relative activity over WT GLA (SEQ ID NO: 5))”. Further, the “Relative Activity … at pH 4.3” value in data set [2] is “++ (++ = >1.5 to 2.5 relative activity over WT GLA (SEQ ID NO: 5))”. In addition, in data set [3], the “Relative Activity … at pH 7.0” value is “+ (+ = 0.5 to 1.5 relative activity over WT GLA (SEQ ID NO: 5))”.

B3: 29 (protein)
chain: B1 chain with S179P, Q299R, Q302K, I376V
modifications: Synthetic Polypeptide sequence of Variant No. 29 of mature Human GLA
For B3, the “Relative Activity of GLA Variants After No Challenge (NC)” value in data set [1] is “+ (+ = 0.5 to 1.5 relative activity over WT GLA (SEQ ID NO: 5))”. In addition, in data set [2], the “Relative Activity … at pH 4.3” value is “+ (+ = 0.5 to 1.5 relative activity over WT GLA (SEQ ID NO: 5))”. The “Relative Activity … at pH 7.0” value in data set [3] is “+ (+ = 0.5 to 1.5 relative activity over WT GLA (SEQ ID NO: 5))”.

B4: 31 (protein)
chain: B1 chain with S179P
modifications: Synthetic Polypeptide sequence of Variant No. 31 of mature Human GLA
For B4, the “Relative Activity of GLA Variants After No Challenge (NC)” value in data set [1] is “+ (+ = 0.5 to 1.5 relative activity over WT GLA (SEQ ID NO: 5))”. Further, the “Relative Activity … at pH 4.3” value in data set [2] is “+ (+ = 0.5 to 1.5 relative activity over WT GLA (SEQ ID NO: 5))”. For the same molecule, in data set [3], the “Relative Activity … at pH 7.0” value is “+ (+ = 0.5 to 1.5 relative activity over WT GLA (SEQ ID NO: 5))”.

B5: 28 (protein)
chain: B1 chain with S179P, Q299R, Q302K
modifications: Synthetic Polypeptide sequence of Variant No. 28 of mature Human GLA
B5: the “Relative Activity of GLA Variants After No Challenge (NC)” value in data set [1] is listed as “+ (+ = 0.5 to 1.5 relative activity over WT GLA (SEQ ID NO: 5))”. The “Relative Activity … at pH 4.3” value in data set [2] is recorded as “+ (+ = 0.5 to 1.5 relative activity over WT GLA (SEQ ID NO: 5))”. Further, in data set [3], the “Relative Activity … at pH 7.0” value is “+ (+ = 0.5 to 1.5 relative activity over WT GLA (SEQ ID NO: 5))”.

B6: 27 (protein)
chain: B1 chain with S179P, Q299R, M322V
modifications: Synthetic Polypeptide sequence of Variant No. 27 of mature Human GLA
In the case of B6, the “Relative Activity of GLA Variants After No Challenge (NC)” value in data set [1] is “+ (+ = 0.5 to 1.5 relative activity over WT GLA (SEQ ID NO: 5))”. In addition, the “Relative Activity … at pH 4.3” value in data set [2] is “+ (+ = 0.5 to 1.5 relative activity over WT GLA (SEQ ID NO: 5))”. Further, in data set [3], the “Relative Activity … at pH 7.0” value is recorded as “+ (+ = 0.5 to 1.5 relative activity over WT GLA (SEQ ID NO: 5))”.

B7: 30 (protein)
chain: B1 chain with S179P, Q302K, K373R, I376V
modifications: Synthetic Polypeptide sequence of Variant No. 30 of mature Human GLA
Regarding B7, the “Relative Activity of GLA Variants After No Challenge (NC)” value in data set [1] was “+ (+ = 0.5 to 1.5 relative activity over WT GLA (SEQ ID NO: 5))”. Besides, the “Relative Activity … at pH 4.3” value in data set [2] is “++ (++ = >1.5 to 2.5 relative activity over WT GLA (SEQ ID NO: 5))”. In data set [3], the “Relative Activity … at pH 7.0” value was “+ (+ = 0.5 to 1.5 relative activity over WT GLA (SEQ ID NO: 5))”.

B8: 1 (protein)
chain: LDNGLARTPTMGWLHWERFMCNLDCQEEPDSCISEKLFMEMAELMVSEGWKDAGYEYLCIDDCWMAPQRDSEGRLQADPQRFPHGIRQLANYVHSKGLKLGIYADVGNKTCAGFPGSFGYYDIDAQTFADWGVDLLKFDGCYCDSLENLADGYKHMSLALNRTGRSIVYSCEWPLYMWPFQKPNYTEIRQYCNHWRNFADIDDSWKSIKSILDWTSFNQERIVDVAGPGGWNDPDMLVIGNFGLSWNQQVTQMALWAIMAAPLFMSNDLRHISPQAKALLQDKDVIAINQDPLGKQGYQLRQGDNFEVWERPLSGLAWAVAMINRQEIGGPRSYTISVASLGKGVACNPACFITQLLPVKRKLGFYEWTSRLRSHINPTGTVLLQLENTMQMSLKDLL
modifications: Synthetic Polypeptide sequence of Variant No. 1 of mature Human GLA
With B8, the “Relative Activity of GLA Variants After No Challenge (NC)” value in data set [1] is “+ (+ = 0.5 to 1.5 relative activity over WT GLA (SEQ ID NO: 5))”. The “Relative Activity … at pH 4.3” value in data set [2] is “+ (+ = 0.5 to 1.5 relative activity over WT GLA (SEQ ID NO: 5))”. In addition, the “Relative Activity … at pH 7.0” value in data set [3] is on record as “+ (+ = 0.5 to 1.5 relative activity over WT GLA (SEQ ID NO: 5))”.

B9: 2 (protein)
chain: B8 chain with E43D, S337A
modifications: Synthetic Polypeptide sequence of Variant No. 2 of mature Human GLA
B9: the “Relative Activity of GLA Variants After No Challenge (NC)” value in data set [1] was “+ (+ = 0.5 to 1.5 relative activity over WT GLA (SEQ ID NO: 5))”. For the same molecule, the “Relative Activity … at pH 4.3” value in data set [2] is given as “+ (+ = 0.5 to 1.5 relative activity over WT GLA (SEQ ID NO: 5))”. Further, the “Relative Activity … at pH 7.0” value in data set [3] was “+ (+ = 0.5 to 1.5 relative activity over WT GLA (SEQ ID NO: 5))”.

B10: 123 (protein)
chain: B8 chain with M20D, Q302K, S337A, L394K, K395D, D396L
modifications: Synthetic Polypeptide sequence of Variant No. 123 of mature Human GLA
For the molecule B10, the “Relative Activity of GLA Variants After No Challenge (NC)” value in data set [1] is reported as “− (− = <0.5 relative activity to WT GLA (SEQ ID NO: 5))”. For the same molecule, the “Relative Activity of GLA Variants After Challenge at pH 4.2” value in data set [2] (challenge at pH 4.2) is on record as “+ (+ = 0.5 to 1.5 relative activity over WT GLA (SEQ ID NO: 5))”. Further, the “Relative Activity of GLA Variants After Challenge at pH 7.1” value in data set [3] (challenge at pH 7.1) is given as “− (− = <0.5 relative activity to WT GLA (SEQ ID NO: 5))”.

These data come from patent US11278600B2, “Human alpha-galactosidase variants” (Codexis, Inc., priority 2014, dated 2022).
